Data taken from patent US20200369781A1 (published 2020).
Positions count from the first letter of the chain named. One block for each binder: values may come before it.

Tests used:
soluble human IL-6R [1] = molecular target: T1, soluble human IL-6R (human, UniProt P08887 20-357); test: BLI (Octet), in the same way as in Example 3
T1 construct: 152, 4958-4968 (1994); also called hsIL-6R; recombinant human IL-6R
T1 sequence: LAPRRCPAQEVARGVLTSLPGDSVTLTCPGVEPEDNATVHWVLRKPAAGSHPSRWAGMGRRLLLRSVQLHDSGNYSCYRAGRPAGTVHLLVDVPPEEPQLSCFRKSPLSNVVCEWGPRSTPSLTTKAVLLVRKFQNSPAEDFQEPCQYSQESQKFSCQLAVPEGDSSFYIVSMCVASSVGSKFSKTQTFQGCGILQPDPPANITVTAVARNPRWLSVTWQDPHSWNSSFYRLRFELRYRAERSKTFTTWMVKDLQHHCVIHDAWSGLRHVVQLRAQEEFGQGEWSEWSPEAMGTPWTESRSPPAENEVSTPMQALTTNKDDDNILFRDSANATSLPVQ

soluble human IL-6R [2] = molecular target: T1, soluble human IL-6R; test: BLI (Octet), in the same way as in Example 3, 30 C or 25 C
soluble human IL-6R [3] = molecular target: T1, soluble human IL-6R; test: BLI (Octet HTX), molecule captured on Protein A biosensor, hsIL-6R as analyte, 30 C
Protocol: The hsIL-6R binding evaluation of each molecule was conducted using Octet HTX (Pall ForteBio Corp.). Specifically, each molecule was allowed to bind to Biosensor/Protein A (ProA) (Pall ForteBio Corp., 18-5013), and hsIL-6R was allowed to act thereon, followed by binding evaluation at 30° C.

binding result (soluble human IL-6R [1]): binds
B1: 20A11-G1m/VK2-28-k0MT (antibody, human IgG1, kappa, V domains shown)
VH: EVQLVESGGGLVQPGGSLRLSCAASGSVFKINVMAWYRQAPGKGRELVAGIISGGSTSYADSVKGRFTISRDNAKNTLYLQMNSLRPEDTAVYYCAFITTESDYDLGRRYWGQGTLVTVSS
VL: not shown
notes: IgG antibody-like molecule with VHH 20A11 in place of VH

binding result (soluble human IL-6R [2]): no binding
B2: 20A11hu-G1m/VK2-28-k0MT (antibody, human IgG1, kappa, V domains shown)
VH: B1 VH with Y37V, R45L, L47W
VL: not shown
notes: IgG antibody-like molecule with VHH 20A11hu in place of VH

binding result (soluble human IL-6R [3]): no binding
B3: IL6R90-G1m/VK2-28-k0MT (antibody, human IgG1, kappa, V domains shown)
VH: EVQLVESGGGLVQPGGSLRLSCAASGFTFDDYGMSWVRQAPGKALEWVSAISWNGNNTYYTESMKGRFTISRDNAKNTLYLQMNSLRPEDTAVYYCVKGSTAIVGVPPTYPDEYDYWGQGTLVTVSS
VL: not shown
notes: IgG antibody-like molecule with VHH IL6R90 in place of VH
